Test results as given in patent US20110236900, “NOVEL MUTS PROTEIN AND METHOD FOR DETERMING MUTATION USING THE SAME” (RIKEN, published 2011).

Legend:
[1] = tested on: T1, Aac MutS (Alicyclobacillus acidocaldarius subsp. acidocaldarius JCM5260); assay: SPR; conditions: 20 mM MgCl2
T1 sequence: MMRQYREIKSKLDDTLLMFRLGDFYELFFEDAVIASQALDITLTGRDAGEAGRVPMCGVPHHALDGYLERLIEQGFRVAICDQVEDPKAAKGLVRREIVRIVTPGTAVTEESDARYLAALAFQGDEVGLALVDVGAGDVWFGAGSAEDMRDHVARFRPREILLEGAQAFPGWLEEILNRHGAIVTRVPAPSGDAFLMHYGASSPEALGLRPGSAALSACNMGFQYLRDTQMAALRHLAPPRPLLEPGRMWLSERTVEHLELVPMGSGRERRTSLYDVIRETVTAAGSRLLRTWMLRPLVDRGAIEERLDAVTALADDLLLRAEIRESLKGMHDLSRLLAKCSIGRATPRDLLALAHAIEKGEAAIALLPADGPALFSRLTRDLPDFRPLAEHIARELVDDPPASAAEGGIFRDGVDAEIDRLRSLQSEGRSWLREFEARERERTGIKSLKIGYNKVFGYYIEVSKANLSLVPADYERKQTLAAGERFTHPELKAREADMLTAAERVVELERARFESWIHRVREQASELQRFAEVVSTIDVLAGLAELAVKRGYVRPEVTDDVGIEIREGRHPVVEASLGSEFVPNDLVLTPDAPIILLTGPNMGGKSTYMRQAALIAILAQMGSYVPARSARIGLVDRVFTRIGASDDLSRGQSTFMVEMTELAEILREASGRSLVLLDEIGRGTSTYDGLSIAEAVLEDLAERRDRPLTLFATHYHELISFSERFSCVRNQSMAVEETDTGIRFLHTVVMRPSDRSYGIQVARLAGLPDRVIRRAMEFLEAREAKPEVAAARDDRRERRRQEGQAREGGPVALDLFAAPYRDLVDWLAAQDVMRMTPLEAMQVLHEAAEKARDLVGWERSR

[2] = biological target: T2, Aac MutS (Alicyclobacillus acidocaldarius subsp. …); assay: SPR; Example 3-1; 1 mM ADP, 20 mM MgCl2, 50 mM KCl, pH 7.6; conditions: tags: none stated (pET17b, E. coli BL21-CodonPlus(DE3)RIL); chain copies: 2 stated; label: 5'-biotin on T-strand; single G-T mismatch
T2 chain: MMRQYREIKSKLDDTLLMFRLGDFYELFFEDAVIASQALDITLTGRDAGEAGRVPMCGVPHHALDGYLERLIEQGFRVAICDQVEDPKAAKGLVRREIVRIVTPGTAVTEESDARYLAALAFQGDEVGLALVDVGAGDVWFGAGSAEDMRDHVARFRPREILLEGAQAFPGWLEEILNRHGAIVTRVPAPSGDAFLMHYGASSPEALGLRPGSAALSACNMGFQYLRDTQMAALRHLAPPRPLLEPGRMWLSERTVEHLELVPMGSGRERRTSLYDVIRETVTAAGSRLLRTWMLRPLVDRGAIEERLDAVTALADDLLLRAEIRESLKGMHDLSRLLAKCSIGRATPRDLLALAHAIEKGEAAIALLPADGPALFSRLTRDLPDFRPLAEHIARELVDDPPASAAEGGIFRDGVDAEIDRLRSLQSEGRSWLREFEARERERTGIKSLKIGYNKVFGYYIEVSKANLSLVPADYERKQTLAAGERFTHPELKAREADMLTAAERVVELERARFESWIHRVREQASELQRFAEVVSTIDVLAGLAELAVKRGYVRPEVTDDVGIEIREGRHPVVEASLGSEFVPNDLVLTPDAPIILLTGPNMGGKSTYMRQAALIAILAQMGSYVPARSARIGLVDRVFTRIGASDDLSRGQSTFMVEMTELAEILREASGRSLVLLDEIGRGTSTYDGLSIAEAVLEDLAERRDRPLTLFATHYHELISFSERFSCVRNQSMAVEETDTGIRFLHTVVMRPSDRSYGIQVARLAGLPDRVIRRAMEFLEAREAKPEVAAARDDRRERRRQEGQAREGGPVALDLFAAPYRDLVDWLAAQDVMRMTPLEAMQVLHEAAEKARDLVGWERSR
Experimental: (§1) The chip was set in BIACORE3000, then the running buffer was passed through a channel of the chip at a flow rate of 10 μL/min, and an experiment was started as follows. First, 5 μmol/L C-strand DNA, 5 μmol/L T-strand DNA, and 5 μmol/L Del-strand DNA as regands were passed through the respective three flow cells contained in the chip at a flow rate of 10 μL/min, and they were bound to each other until the Resonance Unit reached about 150 RU (Resonance Unit). Subsequently, 5 μmol/L of the G-strand DNA was injected into each of the flow cells at a flow rate of 20 μL/min for 2 minutes, and thereafter, the flow cells were washed with the running buffer for 10 minutes. Thus, double-stranded DNAs between the C-strand DNA and the G-strand DNA, between T-strand DNA and the same, and between the Del-strand DNA and the same were formed. […] While injecting and washing, signal intensity was measured from the start of the injection of the Aac MutS. In Comparative Example 1, signal intensity was measured by the same treatment as that of Example 2 using Taq MutS derived from Thermus aquatieus as substitute for the Aac MutS.
(§2) The signal intensity was measured in the same manner as in Example 2 except that 1 mmol/L ADP or ATP was added to the running buffer of Example 2. […] In Comparative Example 2, the signal intensity was measured using the Taq MutS in the same manner as in Example 3. […]

[3] = biological target: T3, Taq MutS (Thermus aquaticus, UniProt Q56215 Q56215:1-811); assay: SPR; Comp. Ex. 2-1; 1 mM ADP, 20 mM MgCl2
T3 sequence: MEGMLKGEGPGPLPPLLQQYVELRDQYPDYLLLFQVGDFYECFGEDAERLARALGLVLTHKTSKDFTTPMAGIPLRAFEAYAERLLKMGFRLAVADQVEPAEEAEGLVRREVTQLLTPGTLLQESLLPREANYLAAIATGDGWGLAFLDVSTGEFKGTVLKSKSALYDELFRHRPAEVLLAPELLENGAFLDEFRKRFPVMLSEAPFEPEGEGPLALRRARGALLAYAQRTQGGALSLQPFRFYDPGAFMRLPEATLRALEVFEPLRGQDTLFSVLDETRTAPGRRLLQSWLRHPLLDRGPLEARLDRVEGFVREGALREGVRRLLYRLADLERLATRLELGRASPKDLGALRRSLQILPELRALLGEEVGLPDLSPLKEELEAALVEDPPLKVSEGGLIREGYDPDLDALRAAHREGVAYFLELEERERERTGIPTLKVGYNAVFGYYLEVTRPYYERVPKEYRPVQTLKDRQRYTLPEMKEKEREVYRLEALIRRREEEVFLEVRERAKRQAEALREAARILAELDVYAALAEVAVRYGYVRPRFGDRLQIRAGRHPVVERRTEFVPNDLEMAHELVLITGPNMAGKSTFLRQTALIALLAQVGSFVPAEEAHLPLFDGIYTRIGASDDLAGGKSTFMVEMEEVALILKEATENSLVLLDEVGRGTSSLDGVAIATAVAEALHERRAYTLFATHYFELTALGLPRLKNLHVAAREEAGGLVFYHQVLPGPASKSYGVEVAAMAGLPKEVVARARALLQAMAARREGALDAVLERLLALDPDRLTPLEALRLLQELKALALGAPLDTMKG
Experimental: as §1, §2

[4] = biological target: T2, Aac MutS; assay: SPR; Example 2; no nucleotide, 20 mM MgCl2, 50 mM KCl, pH 7.6; conditions: tags: none stated (pET17b, E. coli BL21-CodonPlus(DE3)RIL); chain copies: 2 stated; label: 5'-biotin on T-strand; single G-T mismatch
Experimental: (§3) The chip was set in BIACORE3000, then the running buffer was passed through a channel of the chip at a flow rate of 10 μL/min, and an experiment was started as follows. First, 5 μmol/L C-strand DNA, 5 μmol/L T-strand DNA, and 5 μmol/L Del-strand DNA as regands were passed through the respective three flow cells contained in the chip at a flow rate of 10 μL/min, and they were bound to each other until the Resonance Unit reached about 150 RU (Resonance Unit). Subsequently, 5 μmol/L of the G-strand DNA was injected into each of the flow cells at a flow rate of 20 μL/min for 2 minutes, and thereafter, the flow cells were washed with the running buffer for 10 minutes. Thus, double-stranded DNAs between the C-strand DNA and the G-strand DNA, between T-strand DNA and the same, and between the Del-strand DNA and the same were formed. Then, an Aac MutS solution with the predetermined concentration (0.1, 0.2, 0.5, 1, 2, or 4 μmol/L) was injected into each of the flow cells at a flow rate of 20 μL/min for 10 minutes, and thereafter, the flow cells were washed with the running buffer for 20 minutes. While injecting and washing, signal intensity was measured from the start of the injection of the Aac MutS. In Comparative Example 1, signal intensity was measured by the same treatment as that of Example 2 using Taq MutS derived from Thermus aquatieus as substitute for the Aac MutS.

[5] = biological target: T3, Taq MutS; assay: SPR; Comp. Ex. 1; no nucleotide, 20 mM MgCl2, 50 mM KCl, pH 7.6; conditions: label: 5'-biotin on T-strand; single G-T mismatch
Experimental: as §3

[6] = biological target: T3, Taq MutS; assay: SPR; Comp. Ex. 1; no nucleotide, 20 mM MgCl2; conditions: label: 5'-biotin on C-strand
Experimental: as §3

Molecule: CCGCTGAATTGCACCGAGCTCGATCCTCGATGATCCTAAGCGATCCATG (double strand) [C/G fully-matched duplex]
- Kd ([1]; Example 2, no nucleotide, text says binding not found): 65500 nM
- Kd ([1]; Example 3-1, 1 mM ADP, binding described as sufficiently suppressed): 19800 nM

B1: T/G mismatched duplex (dsDNA)
DNA 1: CCGCTGAATTGCACCGAGCTTGATCCTCGATGATCCTAAGCGATCCATG
DNA 2: CATGGATCGCTTAGGATCATCGAGGATCGAGCTCGGTGCAATTCAGCGG
- Kd [2]: 330 nM
- Kd ([3]; label: 5'-biotin on T-strand, single G-T mismatch): 2260 nM
- Kd [4]: 1450 nM
- Kd [5]: 622 nM

B2: C/G fully-matched duplex (dsDNA)
DNA 1: CCGCTGAATTGCACCGAGCTCGATCCTCGATGATCCTAAGCGATCCATG
DNA 2: CATGGATCGCTTAGGATCATCGAGGATCGAGCTCGGTGCAATTCAGCGG
- Kd [6]: 2270 nM
- Kd ([3]; label: 5'-biotin on C-strand): 6580 nM
